Data as given in patent publication US20140348865A1, “[…] ON AN HIV-1 V1V2 SITE-OF-VULNERABILITY” (The United States of America, as represented by the …, priority 2011, published 2014).

Experiments:
[1] = target: Env of HIV-1 strain ZM135 (pseudovirus) (HIV-1)
[2] = target: Env of HIV-1 strain CNE30 (pseudovirus) (HIV-1)
[3] = target: Env of HIV-1 strain 6322 (pseudovirus) (HIV-1)
[4] = target: Env of HIV-1 strain 6631 (pseudovirus) (HIV-1)
[5] = target: Env of HIV-1 strain 6405 (pseudovirus) (HIV-1)
SVA.MLV [6] = target: SVA.MLV
[7] = target: Env of HIV-1 strain A03349M1 (pseudovirus) (HIV-1)
[8] = target: Env of HIV-1 strain X2088 (pseudovirus) (HIV-1)
[9] = target: Env of HIV-1 strain QH0515 (pseudovirus) (HIV-1)
[10] = target: Env of HIV-1 strain 6405 (pseudovirus) (HIV-1); remark: listed apart in the source
SVA.MLV [11] = target: SVA.MLV; remark: listed apart in the source
[12] = target: Env of HIV-1 strain A03349M1 (pseudovirus) (HIV-1); remark: listed apart in the source
[13] = target: Env of HIV-1 strain X2088 (pseudovirus) (HIV-1); remark: listed apart in the source

monoclonal antibody PG9
neutralization IC50 (BR025.9): 0.044 µg/mL
neutralization IC50 [1]: > 50 µg/mL
neutralization IC50 (TZA125.17): 0.231 µg/mL
neutralization IC50 (DU172.17): 0.262 µg/mL
neutralization IC50 (MW965.26): 1.99 µg/mL
neutralization IC50 (ZM146.7): 0.635 µg/mL
neutralization IC50 [2]: > 50 µg/mL
neutralization IC50 (ZM109.4): 0.106 µg/mL
neutralization IC50 (DU156.12): < 0.023 µg/mL
neutralization IC50 (CNE58): < 0.023 µg/mL
neutralization IC50 (CNE15): < 0.023 µg/mL
neutralization IC50 (CH070.1): 0.006 µg/mL
neutralization IC50 (3637.V5.C3): > 50 µg/mL
neutralization IC50 (CAP244.D3): 0.088 µg/mL
neutralization IC50 [3]: > 50 µg/mL
neutralization IC50 (CH181.12): 0.008 µg/mL
neutralization IC50 (DU151.02): < 0.023 µg/mL
neutralization IC50 (CNE40): 1.16 µg/mL
neutralization IC50 (6644.V2.C33): 0.033 µg/mL
neutralization IC50 (3168.V4.C10): 0.162 µg/mL
neutralization IC50 (SO18.18): 0.061 µg/mL
neutralization IC50 (ZM106.9): 0.639 µg/mL
neutralization IC50 [4]: > 50 µg/mL
neutralization IC50 (DU422.01): 0.303 µg/mL
neutralization IC80 (3337_V2_C6 (HIV-1)): > 50 µg/mL
neutralization IC80 [5]: > 50 µg/mL
neutralization IC80 (NKU3006.ec1 (HIV-1)): > 50 µg/mL
neutralization IC80 (3817.v2.c59 (HIV-1)): 0.028 µg/mL
neutralization IC80 (SVA.MLV [6]): > 50 µg/mL
neutralization IC80 (231965.c1 (HIV-1)): > 50 µg/mL
neutralization IC80 (3326_V4_C3 (HIV-1)): 0.111 µg/mL
neutralization IC80 (ZM233.6 (HIV-1)): < 0.023 µg/mL
neutralization IC80 (ZM249.1 (HIV-1)): 0.408 µg/mL
neutralization IC80 (UG021.16 (HIV-1)): > 50 µg/mL
neutralization IC80 (ZM55.28a (HIV-1)): 11.5 µg/mL
neutralization IC80 (57128.vrc15 (HIV-1)): 0.665 µg/mL
neutralization IC80 (3016.v5.c45 (HIV-1)): > 50 µg/mL
neutralization IC80 (UG024.2 (HIV-1)): > 50 µg/mL
neutralization IC80 (ZM53.12 (HIV-1)): 0.17 µg/mL
neutralization IC80 [7]: > 50 µg/mL
neutralization IC80 [8]: > 50 µg/mL
neutralization IC80 (SIVmac251.30.SG3 (SIV)): > 50 µg/mL
neutralization IC80 (Bal.01 (HIV-1)): 1.52 µg/mL
neutralization IC80 [9]: > 50 µg/mL
neutralization IC80 (WITO.33 (HIV-1)): 0.03 µg/mL
neutralization IC80 (CNE10 (HIV-1)): 1.61 µg/mL
neutralization IC50 (UG024.2): 3.94 µg/mL
neutralization IC50 (ZM55.28a): 0.571 µg/mL
neutralization IC50 (3326.V4.C3): < 0.023 µg/mL
neutralization IC50 (3337.V2.C6): > 50 µg/mL
neutralization IC50 [10]: > 50 µg/mL
neutralization IC50 (ZM249.1): 0.033 µg/mL
neutralization IC50 (3817.v2.c59): 0.007 µg/mL
neutralization IC50 (NKU3006.ec1): > 50 µg/mL
neutralization IC50 (SVA.MLV [11]): > 50 µg/mL
neutralization IC50 (SIVmac251.30.SG3): > 50 µg/mL
neutralization IC50 (ZM215.8): < 0.023 µg/mL
neutralization IC50 (3016.v5.c45): 0.286 µg/mL
neutralization IC50 (57128.vrc15): 0.104 µg/mL
neutralization IC50 (ZM197.7): 0.414 µg/mL
neutralization IC50 [12]: > 50 µg/mL
neutralization IC50 [13]: > 50 µg/mL
neutralization IC50 (ZM53.12): 0.041 µg/mL
neutralization IC50 (ZM214.15): > 50 µg/mL
neutralization IC50 (231965.c1): 1.51 µg/mL
neutralization IC50 (ZM233.6): < 0.023 µg/mL
neutralization IC50 (UG021.16): > 50 µg/mL

monoclonal antibody PG16
neutralization IC50 (BR025.9): 0.009 µg/mL
neutralization IC50 [1]: > 50 µg/mL
neutralization IC50 (TZA125.17): 0.024 µg/mL
neutralization IC50 (DU172.17): 0.03 µg/mL
neutralization IC50 (MW965.26): 0.961 µg/mL
neutralization IC50 (ZM146.7): 0.767 µg/mL
neutralization IC50 [2]: > 50 µg/mL
neutralization IC50 (ZM109.4): 4.93 µg/mL
neutralization IC50 (DU156.12): < 0.023 µg/mL
neutralization IC50 (CNE58): < 0.023 µg/mL
neutralization IC50 (CNE15): < 0.023 µg/mL
neutralization IC50 (CH070.1): 0.002 µg/mL
neutralization IC50 (3637.V5.C3): > 50 µg/mL
neutralization IC50 (CAP244.D3): < 0.023 µg/mL
neutralization IC50 [3]: > 50 µg/mL
neutralization IC50 (CH181.12): 0.002 µg/mL
neutralization IC50 (DU151.02): < 0.023 µg/mL
neutralization IC50 (CNE40): 49 µg/mL
neutralization IC50 (6644.V2.C33): 35.3 µg/mL
neutralization IC50 (3168.V4.C10): 0.037 µg/mL
neutralization IC50 (SO18.18): 0.023 µg/mL
neutralization IC50 (ZM106.9): 1.1 µg/mL
neutralization IC50 [4]: > 50 µg/mL
neutralization IC50 (DU422.01): < 0.023 µg/mL
neutralization IC80 (3337_V2_C6 (HIV-1)): > 50 µg/mL
neutralization IC80 [5]: > 50 µg/mL
neutralization IC80 (NKU3006.ec1 (HIV-1)): > 50 µg/mL
neutralization IC80 (3817.v2.c59 (HIV-1)): 0.051 µg/mL
neutralization IC80 (SVA.MLV [6]): > 50 µg/mL
neutralization IC80 (231965.c1 (HIV-1)): > 50 µg/mL
neutralization IC80 (3326_V4_C3 (HIV-1)): 0.221 µg/mL
neutralization IC80 (ZM233.6 (HIV-1)): < 0.023 µg/mL
neutralization IC80 (ZM249.1 (HIV-1)): 9.23 µg/mL
neutralization IC80 (UG021.16 (HIV-1)): > 50 µg/mL
neutralization IC80 (ZM55.28a (HIV-1)): > 50 µg/mL
neutralization IC80 (57128.vrc15 (HIV-1)): > 50 µg/mL
neutralization IC80 (3016.v5.c45 (HIV-1)): > 50 µg/mL
neutralization IC80 (UG024.2 (HIV-1)): > 50 µg/mL
neutralization IC80 (ZM53.12 (HIV-1)): 0.103 µg/mL
neutralization IC80 [7]: > 50 µg/mL
neutralization IC80 [8]: > 50 µg/mL
neutralization IC80 (SIVmac251.30.SG3 (SIV)): > 50 µg/mL
neutralization IC80 (Bal.01 (HIV-1)): > 50 µg/mL
neutralization IC80 [9]: > 50 µg/mL
neutralization IC80 (WITO.33 (HIV-1)): < 0.023 µg/mL
neutralization IC80 (CNE10 (HIV-1)): > 50 µg/mL
neutralization IC50 (UG024.2): > 50 µg/mL
neutralization IC50 (ZM55.28a): > 50 µg/mL
neutralization IC50 (3326.V4.C3): < 0.023 µg/mL
neutralization IC50 (3337.V2.C6): > 50 µg/mL
neutralization IC50 [10]: > 50 µg/mL
neutralization IC50 (ZM249.1): 0.073 µg/mL
neutralization IC50 (3817.v2.c59): 0.006 µg/mL
neutralization IC50 (NKU3006.ec1): > 50 µg/mL
neutralization IC50 (SVA.MLV [11]): > 50 µg/mL
neutralization IC50 (SIVmac251.30.SG3): > 50 µg/mL
neutralization IC50 (ZM215.8): > 50 µg/mL
neutralization IC50 (3016.v5.c45): > 50 µg/mL
neutralization IC50 (57128.vrc15): 0.162 µg/mL
neutralization IC50 (ZM197.7): 0.65 µg/mL
neutralization IC50 [12]: > 50 µg/mL
neutralization IC50 [13]: > 50 µg/mL
neutralization IC50 (ZM53.12): < 0.023 µg/mL
neutralization IC50 (ZM214.15): > 50 µg/mL
neutralization IC50 (231965.c1): 4.72 µg/mL
neutralization IC50 (ZM233.6): < 0.023 µg/mL
neutralization IC50 (UG021.16): > 50 µg/mL
